From patent US20210317456

What was measured:
[1] = tested on: IgG1-Kappa (Homo sapiens), P01857-1+P01834; experiment: pulldown; details: Protein L beads
[2] = tested on: Immunoglobulin G (total IgG); experiment: pulldown
[3] = tested on: IgG4-Kappa (Homo sapiens), P01861-1+P01834; experiment: pulldown; details: Protein L beads
[4] = tested on: IgG3-Kappa (Homo sapiens), P01860-1+P01834; experiment: pulldown; details: Protein L beads
[5] = tested on: IgG3-Fc (Homo sapiens), P01860-1; experiment: filter; details: n (P) = NapdU; Zorbax, SB18, 37 C
[6] = tested on: IgA (Homo sapiens); experiment: filter; details: Zorbax, SB18, 37 C
[7] = tested on: β-FGFR fusion (Fc fusion protein) (Homo sapiens); experiment: filter; details: Zorbax, SB18, 37 C
[8] = tested on: IgG1-Fc (Homo sapiens), P01857-1; experiment: filter; details: n (P) = NapdU; Zorbax, SB18, 37 C
[9] = tested on: IgM (Homo sapiens); experiment: filter; details: Zorbax, SB18, 37 C
[10] = tested on: Total IgG (cow) (Bos taurus); experiment: pulldown; details: P = 2NapdU; Zorbax beads, SB18, 37C
[11] = tested on: IgG3-Fc (Homo sapiens), P01860-1; experiment: pulldown; details: 37C, bead partitioning
[12] = tested on: IgD (Homo sapiens); experiment: pulldown; details: Zorbax beads, SB18, 37C
[13] = tested on: Total IgG (rabbit) (Oryctolagus cuniculus); experiment: pulldown; details: Zorbax beads, SB18, 37C
[14] = tested on: Total IgG (sheep) (Ovis aries); experiment: pulldown; details: P = 2NapdU; Zorbax beads, SB18, 37C
[15] = tested on: IgG2-Fc (Homo sapiens), P01859-1; experiment: pulldown; details: 37C, bead partitioning
[16] = tested on: Total IgG (goat) (Capra hircus); experiment: pulldown; details: P = 2NapdU; Zorbax beads, SB18, 37C
[17] = tested on: IgA (Homo sapiens); experiment: pulldown; details: Zorbax beads, SB18, 37C
[18] = tested on: β-FGFR fusion (Fc fusion protein) (Homo sapiens); experiment: pulldown; details: 37C, bead partitioning
[19] = tested on: IgG1 (mouse) (Mus musculus); experiment: pulldown; details: P = 2NapdU; Protein L beads, SB17; printed as 3E07 (minus sign missing)
[20] = tested on: IgM (cow) (Bos taurus); experiment: pulldown; details: P = 2NapdU; Zorbax beads, SB18, 37C
[21] = tested on: Total IgG (monkey) (monkey); experiment: pulldown; details: Zorbax beads, SB18, 37C
[22] = tested on: IgG1-Fc (Homo sapiens), P01857-1; experiment: pulldown; details: 37C, bead partitioning
[23] = tested on: IgG4-Fc (Homo sapiens), P01861-1; experiment: pulldown; details: 37C, bead partitioning
[24] = tested on: Total IgG (mouse) (Mus musculus); experiment: pulldown; details: P = 2NapdU; Zorbax beads, SB18, 37C
[25] = tested on: IgM (Homo sapiens); experiment: pulldown; details: Zorbax beads, SB18, 37C
[26] = tested on: IgD (Homo sapiens); experiment: filter; details: Zorbax, SB18, 37 C
[27] = tested on: Total IgG (rabbit) (Oryctolagus cuniculus); experiment: filter; details: Zorbax, SB18, 37 C
[28] = tested on: IgG2-Fc (Homo sapiens), P01859-1; experiment: filter; details: n (P) = NapdU; Zorbax, SB18, 37 C
[29] = tested on: Total IgG (monkey) (monkey); experiment: filter; details: Zorbax, SB18, 37 C
[30] = tested on: IgG4-Fc (Homo sapiens), P01861-1; experiment: filter; details: n (P) = NapdU; Zorbax, SB18, 37 C
[31] = tested on: Immunoglobulin G (total IgG) (Homo sapiens); experiment: filter
[32] = n (P) = NapdU, SB18, 5 mM MgCl2, 37 C
[33] = n (P) = 2NapdU, SB18, 5 mM MgCl2, 37 C

IgG4-Kappa (Homo sapiens), P01861-1+P01834, sequence (P01861 other isoform, or with tags, fused parts or gaps, chain 1 of 2, other chains not shown): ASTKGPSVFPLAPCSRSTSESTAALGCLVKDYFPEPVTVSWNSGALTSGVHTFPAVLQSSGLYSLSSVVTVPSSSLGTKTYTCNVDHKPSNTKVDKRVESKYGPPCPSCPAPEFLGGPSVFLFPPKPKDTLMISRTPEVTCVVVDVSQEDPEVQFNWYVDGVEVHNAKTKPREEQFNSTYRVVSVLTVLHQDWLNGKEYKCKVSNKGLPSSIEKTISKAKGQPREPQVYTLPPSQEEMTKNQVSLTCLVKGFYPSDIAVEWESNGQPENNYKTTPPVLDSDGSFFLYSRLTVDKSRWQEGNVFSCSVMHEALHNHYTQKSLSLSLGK
IgG3-Fc (Homo sapiens), P01860-1, sequence (P01860 other isoform, or with tags, fused parts or gaps): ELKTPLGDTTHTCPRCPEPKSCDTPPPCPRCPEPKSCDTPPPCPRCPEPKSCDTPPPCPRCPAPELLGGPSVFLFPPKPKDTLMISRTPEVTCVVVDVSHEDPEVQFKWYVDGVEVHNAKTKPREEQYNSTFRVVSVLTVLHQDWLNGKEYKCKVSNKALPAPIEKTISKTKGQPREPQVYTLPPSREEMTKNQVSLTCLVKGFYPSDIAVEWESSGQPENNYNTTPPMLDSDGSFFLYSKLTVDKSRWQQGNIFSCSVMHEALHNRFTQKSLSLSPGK
IgG2-Fc (Homo sapiens), P01859-1, sequence (P01859 other isoform, or with tags, fused parts or gaps): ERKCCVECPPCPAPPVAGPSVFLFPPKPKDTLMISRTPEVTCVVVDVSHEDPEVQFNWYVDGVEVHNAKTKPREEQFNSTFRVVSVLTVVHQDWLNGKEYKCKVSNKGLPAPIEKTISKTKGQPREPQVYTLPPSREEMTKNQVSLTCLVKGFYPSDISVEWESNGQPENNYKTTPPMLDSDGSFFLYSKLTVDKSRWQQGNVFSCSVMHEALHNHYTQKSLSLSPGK
IgG3-Kappa (Homo sapiens), P01860-1+P01834, sequence (P01860 other isoform, or with tags, fused parts or gaps, chain 1 of 2, other chains not shown): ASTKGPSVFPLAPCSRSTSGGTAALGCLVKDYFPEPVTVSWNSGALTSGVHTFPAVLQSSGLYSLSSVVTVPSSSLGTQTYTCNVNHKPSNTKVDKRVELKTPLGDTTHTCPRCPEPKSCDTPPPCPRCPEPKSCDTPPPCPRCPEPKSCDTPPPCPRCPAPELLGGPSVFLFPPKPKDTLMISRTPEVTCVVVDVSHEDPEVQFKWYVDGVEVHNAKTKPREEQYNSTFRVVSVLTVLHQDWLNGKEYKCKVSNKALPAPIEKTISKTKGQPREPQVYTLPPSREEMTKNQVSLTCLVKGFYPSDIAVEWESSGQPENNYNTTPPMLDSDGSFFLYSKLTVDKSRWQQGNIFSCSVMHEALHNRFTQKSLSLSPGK
IgG4-Fc (Homo sapiens), P01861-1, sequence (P01861 other isoform, or with tags, fused parts or gaps): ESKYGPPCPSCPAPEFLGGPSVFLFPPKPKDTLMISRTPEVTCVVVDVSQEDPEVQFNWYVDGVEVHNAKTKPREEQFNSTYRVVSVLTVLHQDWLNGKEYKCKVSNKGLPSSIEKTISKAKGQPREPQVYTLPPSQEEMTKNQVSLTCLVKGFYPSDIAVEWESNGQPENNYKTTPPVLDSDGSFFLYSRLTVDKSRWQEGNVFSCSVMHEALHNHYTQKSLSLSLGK

## CCTCCATACGGTACGATTTTCAGTTGGATCCAGTACCTGGCTGGAGAGAA [5406-56_3]
[1]; n (P) = NapdU, SB17, 37 C
  Kd: 2 nM
[2]; P = NapdU at all n positions, SB18, 5 mM MgCl2, 37C, bead partitioning, 4.54 nM in Table 2
  Kd: 3.13 nM
[3]; n (P) = NapdU, SB17, 37 C
  Kd: 20 nM
[4]; n (P) = NapdU, SB17, 37 C
  Kd: 80 nM
[5]
  Kd: 400 nM
[6]; n (P) = NapdU
  Kd: 200 nM
[7]; n (P) = NapdU
  Kd: 3 nM
[8]
  Kd: 2 nM
[9]; n (P) = NapdU
  Kd: 100 nM

## GCGGTTACCTTGTAGGCGATTATGGGCA [5334-8_34]
[10]
  Kd: 500 nM
[11]; P = 2NapdU
  Kd: 1 nM
[12]; P = 2NapdU
  Kd: 60 nM
[13]; P = 2NapdU
  Kd: 9 nM
[14]
  Kd: 500 nM
[15]; P = 2NapdU
  Kd: 2 nM
[16]
  Kd: 600 nM
[17]; P = 2NapdU
  Kd: 40 nM
[18]; P = 2NapdU
  Kd: 2 nM
[19]
  Kd: 300 nM
[20]
  Kd: 40 nM
[21]; P = 2NapdU
  Kd: 6 nM
[1]; P = 2NapdU, SB17, 37C
  Kd: 20 nM
[22]; P = 2NapdU
  Kd: 5 nM
[2]; P = 2NapdU, SB18, 37C, 8E-09 M in Table 7
  Kd: 9.71 nM
[23]; P = 2NapdU
  Kd: 2 nM
[24]
  Kd: 200 nM
[3]; P = 2NapdU, SB17, 37C
  Kd: 3 nM
[25]; P = 2NapdU
  Kd: 0.6 nM
[4]; P = 2NapdU, SB17, 37C
  Kd: 4 nM

## GCCTGCACGATGGCGAACTCCCTGAATGCTCTTGTCTTAAGTCCCCAACA [14125-144_3]
[1]; n (P) = NapdU, SB17, 37 C
  Kd: 20 nM
[2]; P = NapdU at all n positions, SB18, 37C, 18.8 nM in Table 6
  Kd: 16.3 nM
[3]; n (P) = NapdU, SB17, 37 C
  Kd: 5 nM
[4]; n (P) = NapdU, SB17, 37 C
  Kd: 4 nM
[5]
  Kd: 5 nM
[26]; n (P) = NapdU
  Kd: 600 nM
[27]; n (P) = NapdU
  Kd: 40 nM
[28]
  Kd: 8 nM
[6]; n (P) = NapdU
  Kd: 30 nM
[7]; n (P) = NapdU
  Kd: 3 nM
[29]; n (P) = NapdU
  Kd: 80 nM
[8]
  Kd: 40 nM
[30]
  Kd: 20 nM
[9]; n (P) = NapdU
  Kd: 40 nM

## TGGCGAACTCCCTGAATGCTCTTGTCTT [14125-144_30]
[11]; P = NapdU
  Kd: 2 nM
[12]; P = NapdU
  Kd: 80 nM
[13]; P = NapdU
  Kd: 100 nM
[15]; P = NapdU
  Kd: 7 nM
[17]; P = NapdU
  Kd: 100 nM
[18]; P = NapdU
  Kd: 4 nM
[21]; P = NapdU
  Kd: 60 nM
[1]; P = NapdU, SB17, 37C
  Kd: 40 nM
[22]; P = NapdU
  Kd: 30 nM
[2]; P = NapdU, SB18, 37C, 3E-08 M in Table 7
  Kd: 8.18 nM
[23]; P = NapdU
  Kd: 30 nM
[3]; P = NapdU, SB17, 37C
  Kd: 4 nM
[25]; P = NapdU
  Kd: 6 nM
[4]; P = NapdU, SB17, 37C
  Kd: 8 nM

## CGGCACTCCACATCCAAGACTGCGGTTACCTTGTAGGCGATTATGGGCAG [5334-8_3]
[1]; n (P) = 2NapdU, SB17, 37 C
  Kd: 40 nM
[2]; P = 2NapdU at all n positions, SB18, 37C, 12.2 nM in Table 4
  Kd: 7.52 nM
[3]; n (P) = 2NapdU, SB17, 37 C
  Kd: 10 nM
[4]; n (P) = 2NapdU, SB17, 37 C
  Kd: 7 nM
[26]; n (P) = 2NapdU
  Kd: 600 nM
[27]; n (P) = 2NapdU
  Kd: 20 nM
[6]; n (P) = 2NapdU
  Kd: 200 nM
[7]; n (P) = 2NapdU
  Kd: 9 nM
[29]; n (P) = 2NapdU
  Kd: 20 nM
[9]; n (P) = 2NapdU
  Kd: 100 nM

## TACGGTACGATTTTCAGTTGGATCCAGTACCT [5406-56_33]
[31]; [32]
  Kd: 5.31 nM

## GATGGCGAACTCCCTGAATGCTCTTGTCT [14125-144_32]
[31]; n (P) = NapdU, considered no binding
  Kd: > 1000 nM

## CATCCAAGACTGCGGTTACCTTGTAGGCGATTATGGGCAG [5334-8_8]
[31]; [33]
  Kd: 9.69 nM

## CGGCACTCCACATCCAAGACTGCGGTTACCTTGTAGGCGA [5334-8_16]
[31]; n (P) = 2NapdU, considered no binding
  Kd: > 1000 nM

## GGTACGATTTTCAGTTGGATCCAGTAC [5406-56_48]
[11]; P = NapdU
  Kd: 70 nM
[12]; P = NapdU
  Kd: 500 nM
[17]; P = NapdU
  Kd: 200 nM
[18]; P = NapdU
  Kd: 4 nM
[21]; P = NapdU
  Kd: 100 nM
[1]; P = NapdU, SB17, 37C
  Kd: 2 nM
[22]; P = NapdU
  Kd: 3 nM
[2]; P = NapdU, SB18, 37C, 6E-09 M in Table 7
  Kd: 5.81 nM
[23]; P = NapdU
  Kd: 30 nM
[3]; P = NapdU, SB17, 37C
  Kd: 50 nM
[25]; P = NapdU
  Kd: 70 nM
[4]; P = NapdU, SB17, 37C
  Kd: 100 nM

## AGACTGCGGTTACCTTGTAGGCGATTATGGGCA [5334-8_28]
[31]; [33]
  Kd: 8.45 nM

## ACGGTACGATTTTCAGTTGGATCCAGTACC [5406-56_40]
[31]; [32]
  Kd: 4.32 nM

## ATGGCGAACTCCCTGAATGCTCTTGTCTTA [14125-144_25]
[31]; [32]
  Kd: 7.55 nM
